# pEC50: −log10 of the molar value. “Also recorded” adds a separate entry of the source. Read-outs that look alike come from different tables or passages of the source. Where no end group is shown, it is not given here. [ ]: non-standard residue; d: D form.
# Tests used:
# [1] = target: melanocortin receptor 1 (MC1R) (Homo sapiens, UniProt Q01726); test: MC1R cAMP assay (Discoverx), agonistic; format: cell-based
# Protocol: The agonistic activities toward MC1R, MC4R, CRHR2, PTHR1, and OPRK1 were assyed with an MC1R cAMP assay, an MC4R cAMP assay, a CRHR2 cAMP assay, a PTHR1 cAMP assay and an OPRK1 cAMP assay from Discoverx Inc. (Fremont, Calif.), respectively. The antagonistic activities toward bradykinin receptor 2 (BDKRB2) and GnRH receptor (GnRHR or LHRHR) were assayed with a BDKRB2 arrestin assay and a GnRHR calcium flux assay from Discoverx, respectively.
# For the analysis of Gs-coupled cAMP production, cAMP Hunter cell lines were expanded from freezer stocks, and cells were seeded in a total volume of 20 μL into white walled, 384-well microplates and incubated at 37 C for the appropriate time prior to testing. The cAMP modulation was determined using the DiscoverX HitHunter cAMP XS+ assay. For agonistic activity determination, cells were incubated with sample to induce response. Media was aspirated from cells and replaced with 15 μL 2:1 HBSS/10 mM Hepes: cAMP XS+ Ab reagent. Intermediate dilution of sample stocks was performed to generate 4× sample in assay buffer, and 5 μL of 4× sample was added to cells and incubated at 37 C or room temperature for 30 or 60 minutes. Vehicle concentration was 1%. The compound activity was analyzed using a CBIS data analysis suite (ChemInnovation, CA). For Gs-coupled agonistic assays, percentage activity is calculated using the following formula: % Activity=100%×(mean RLU of test sample−mean RLU of vehicle control)/(mean RLU of MAX control−mean RLU of vehicle control).
# [2] = Compound gel-forming ability in water (visual inspection, tube tapping assay, tilted tube assay); format: physicochemical; conditions: for gel formation in aqueous solution, 6% / propensity to form gels, wild-type counterparts, 6%: 6% w/w; for gel formation in aqueous solution, 11% / propensity to form gels, wild-type counterparts, 11%: 11% w/w; for gel formation in aqueous solution, 20% / propensity to form gels, wild-type counterparts, 20%: 20% w/w; for gel formation at 11% w/w: 11% w/w in water; for Physical property at 11% w/w: Table 1, 11% w/w in aqueous solution, room temperature; for gel formation at 20% w/w: 20% w/w in water; for gel formation at 6% w/w: 6% w/w in water;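 on all read-outs here: peptides mixed with de-ionized water at about 22-25 °C, judged after 20 min by eye plus tube tapping (10 taps, moves counted) and 90° tilt mobility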
# melanocortin receptor 1 (MC1R), sequence (Q01726 whole entry): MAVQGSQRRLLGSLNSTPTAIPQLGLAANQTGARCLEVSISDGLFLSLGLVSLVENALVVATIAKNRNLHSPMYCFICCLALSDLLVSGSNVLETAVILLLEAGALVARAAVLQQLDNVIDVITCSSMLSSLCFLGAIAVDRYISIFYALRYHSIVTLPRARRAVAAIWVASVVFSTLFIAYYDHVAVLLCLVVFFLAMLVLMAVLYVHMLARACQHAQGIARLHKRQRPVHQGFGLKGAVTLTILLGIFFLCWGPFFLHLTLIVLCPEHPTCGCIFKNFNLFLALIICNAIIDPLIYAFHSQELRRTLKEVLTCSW
Compound,"gel formation in aqueous solution, 6% ([2]; Table 3)","gel formation in aqueous solution, 11% ([2]; Table 3)","propensity to form gels, wild-type counterparts, 6% ([2]; Table 5)","propensity to form gels, wild-type counterparts, 11% ([2]; Table 5)",gel formation at 11% w/w [2],Physical property at 11% w/w [2],gel formation at 6% w/w [2],further results
"CCCCCCCCCCCCCCCC(=O)N[C@@H](Cc1c[nH]cn1)C(=O)N[C@@H](CO)C(=O)N[C@@H](Cc1ccc(O)cc1)C(=O)N[C@@H](CO)C(=O)N[C@@H](CCCC)C(=O)N[C@@H](CCC(=O)O)C(=O)N[C@@H](Cc1c[nH]cn1)C(=O)N[C@H](Cc1ccccc1)C(=O)N[C@@H](CCCNC(=N)N)C(=O)N[C@@H](Cc1c[nH]c2ccccc12)C(=O)NCC(=O)N[C@@H](CCCCN)C(=O)N1CCC[C@H]1C(=O)N[C@H](C(N)=O)C(C)C [SEQ ID NO:224, Pal-HSYS-Nle-EH-(D-Phe)-RWGKPV-NH2]",,,,,,,,EC50 [1]: subnanomolar; Max Activity % of positive control [1]: 120 % of positive control; pEC50 ([1]; read-out: EC50): > 10.30
"RPKPQQFF-Sar-L-Met-(O2)-NH2 [SEQ ID NO:69, reference compound]",AS/IS (AS/IS for aqueous solution or insoluble),AS/IS (AS/IS for aqueous solution or insoluble),AS/IS,AS/IS,,,,"gel formation in aqueous solution, 20% ([2]; Table 3): AS/IS (AS/IS for aqueous solution or insoluble); propensity to form gels, wild-type counterparts, 20% ([2]; Table 5): AS/IS"
"RPKPQQFFGLM-NH2 [SEQ ID NO:23, reference compound]",,AS/IS (AS/IS for aqueous solution or insoluble),,AS/IS,semisolid gel,AS/IS,,
"SDAAVDTSSEITTKDLKEKKEVVEEAEN-NH2 (ends and bridges not checked) [SEQ ID NO:13, reference compound]",,,,,form self-assembling gels; also recorded: liquid gel,,,"gel formation at 20% w/w [2]: semisolid gel; gel formation in aqueous solution, 20% ([2]; Table 3): SS (SS for semisolid gel); propensity to form gels, wild-type counterparts, 20% ([2]; Table 5): SS (An ability to form semisolid gel is represented by an SS)"
"SLRRSSCFGGRMDRIGAQSGLGCNSFRY-NH2 [SEQ ID NO:41, reference compound]",,AS/IS (AS/IS for aqueous solution or insoluble),,AS/IS,does not form gel,AS/IS,,"gel formation at 20% w/w [2]: does not form gel; gel formation in aqueous solution, 20% ([2]; Table 3): AS/IS (AS/IS for aqueous solution or insoluble); propensity to form gels, wild-type counterparts, 20% ([2]; Table 5): AS/IS"
"SVSEIQLMHNLGKHLNSMERVEWLRKKLQDVHNF [SEQ ID NO:25, reference compound]",AS/IS (AS/IS for aqueous solution or insoluble),AS/IS (AS/IS for aqueous solution or insoluble),AS/IS,AS/IS,does not form gel,AS/IS,does not form gel,
"SYSMEHFRWGKPVGKKRRPVKVYP-OH [SEQ ID NO:33, reference compound]",,AS/IS (AS/IS for aqueous solution or insoluble),,AS/IS,does not form gel,AS/IS,,"gel formation at 20% w/w [2]: does not form gel; gel formation in aqueous solution, 20% ([2]; Table 3): AS/IS (AS/IS for aqueous solution or insoluble); propensity to form gels, wild-type counterparts, 20% ([2]; Table 5): AS/IS"
"VGVAPG-NH2 [SEQ ID NO:45, reference compound]",AS/IS (AS/IS for aqueous solution or insoluble),AS/IS (AS/IS for aqueous solution or insoluble),AS/IS,AS/IS,,AS/IS,,
VKVKVKVKV(D-Pro)PTKVKVKVKV-miniPEG-RPKPQQFFGLM-NH2 [SEQ ID NO:286],AS/IS (AS/IS for aqueous solution or insoluble),AS/IS (AS/IS for aqueous solution or insoluble),,,,,,
"Y-(D-Ala)-GF(D-Leu)-NH2 [SEQ ID NO:22, reference compound]",AS/IS (AS/IS for aqueous solution or insoluble),AS/IS (AS/IS for aqueous solution or insoluble),AS/IS,AS/IS,do not form gels,AS/IS,do not form gels,
"Y-(D-Met)-FHLMD-NH2 [SEQ ID NO:21, reference compound]",AS/IS (AS/IS for aqueous solution or insoluble),AS/IS (AS/IS for aqueous solution or insoluble),AS/IS,AS/IS,do not form gels,AS/IS,do not form gels,
"YADAIFTNSYRKVLGQLSARKLLQDIMSR-NH2 [SEQ ID NO:35, reference compound]",,AS/IS (AS/IS for aqueous solution or insoluble),,AS/IS,does not form gel,AS/IS,,"gel formation at 20% w/w [2]: does not form gel; gel formation in aqueous solution, 20% ([2]; Table 3): AS/IS (AS/IS for aqueous solution or insoluble); propensity to form gels, wild-type counterparts, 20% ([2]; Table 5): AS/IS"
"YIGSR-NH2 [SEQ ID NO:39, reference compound]",,AS/IS (AS/IS for aqueous solution or insoluble),,AS/IS,,AS/IS,,
"YNWNSFGLRF-NH2 [SEQ ID NO:6, reference compound]",SS (SS for semisolid gel),SS (SS for semisolid gel),SS (An ability to form semisolid gel is represented by an SS),SS (An ability to form semisolid gel is represented by an SS),form self-assembling gels; also recorded: semisolid gel,SS (SS for semisolid gel),semisolid gel,
"YRQSMNNFQGLRSFGCRFGTCTVQKLAHQIYQFTDKDKDNVAPRSKISPQGY-NH2 [SEQ ID NO:2, reference compound]",AS/IS (AS/IS for aqueous solution or insoluble),SS (SS for semisolid gel),,,,SS (SS for semisolid gel),,
"YRSRKYSSWY-NH2 [SEQ ID NO:46, reference compound]",,AS/IS (AS/IS for aqueous solution or insoluble),,AS/IS,,AS/IS,,
"YVMGHFRWDRF-NH2 [SEQ ID NO:64, reference compound]",AS/IS (AS/IS for aqueous solution or insoluble),,AS/IS,,form self-assembling gels; also recorded: liquid gel,,stay soluble,"gel formation at the selected concentration ([2]; selected concentration (i.e., at 30%, 20%, 11%, or 6% w/w)): only form aqueous solution or are insoluble"
"[dF][dF]W[dR] [SEQ ID NO:7, reference compound]",SS (SS for semisolid gel),SS (SS for semisolid gel),SS (An ability to form semisolid gel is represented by an SS),SS (An ability to form semisolid gel is represented by an SS),form self-assembling gels; also recorded: semisolid gel,SS (SS for semisolid gel),semisolid gel,"gel formation at 3% w/w ([2]; 3% w/w in water): semisolid gel; gel formation in aqueous solution, 3% ([2]; Table 3, 3% w/w): SS (SS for semisolid gel); propensity to form gels, wild-type counterparts, 3% ([2]; Table 5, 3% w/w): SS (An ability to form semisolid gel is represented by an SS)"
enfuvirtide,,,,,,AS/IS,,
miniPEG-K(PAL)GCRFGTCTVQKLAHQIYQFTDKDVAPRSKISP(D-Gln)GY-NH2 [SEQ ID NO:48],,,,,semisolid gel,SS (SS for semisolid gel),,

# Source: US20200405868A1, “GEL-FORMING POLYPEPTIDES” (priority 2018, published 2020)
